Assay results: US20190300590A1 (PROTAGONIST THERAPEUTICS, published 2019)
Bridges are numbered along the chain shown (N, C = ends). [ ]: non-standard residue; d: D form. Phe(3,4-(OMe)2) = COc1ccc(C[C@H](N)C(=O)O)cc1OC; Phe(4-CONH2) = NC(=O)c1ccc(C[C@H](N)C(=O)O)cc1; 2Nal = N[C@@H](Cc1ccc2ccccc2c1)C(=O)O; AEF = NCCOc1ccc(C[C@H](N)C(=O)O)cc1; Pen = CC(C)(S)[C@H](N)C(=O)O; αMeV = CC(C)[C@](C)(N)C(=O)O; Aib = CC(C)(N)C(=O)O

T1: IL-23R on DB cells (human, UniProt Q5VWK5 24-629)
T1 sequence (looked up): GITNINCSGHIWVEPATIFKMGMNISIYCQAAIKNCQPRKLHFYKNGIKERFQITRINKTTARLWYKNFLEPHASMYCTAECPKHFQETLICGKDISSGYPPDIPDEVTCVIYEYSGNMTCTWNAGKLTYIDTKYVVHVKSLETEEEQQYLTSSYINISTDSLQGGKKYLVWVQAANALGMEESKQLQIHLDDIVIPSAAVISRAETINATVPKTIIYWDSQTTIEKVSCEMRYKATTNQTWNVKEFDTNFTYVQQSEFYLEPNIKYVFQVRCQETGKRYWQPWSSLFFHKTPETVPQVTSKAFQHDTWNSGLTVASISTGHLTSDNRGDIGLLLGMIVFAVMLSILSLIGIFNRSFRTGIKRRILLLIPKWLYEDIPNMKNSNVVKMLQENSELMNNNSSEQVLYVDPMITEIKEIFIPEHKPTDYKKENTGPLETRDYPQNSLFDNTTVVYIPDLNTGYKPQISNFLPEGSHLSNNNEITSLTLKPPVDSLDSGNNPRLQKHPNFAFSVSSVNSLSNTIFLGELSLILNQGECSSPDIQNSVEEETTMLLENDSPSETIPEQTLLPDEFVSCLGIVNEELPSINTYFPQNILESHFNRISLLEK

T2: IL23R_huFC (human, UniProt Q5VWK5 24-353)
T2 sequence (looked up): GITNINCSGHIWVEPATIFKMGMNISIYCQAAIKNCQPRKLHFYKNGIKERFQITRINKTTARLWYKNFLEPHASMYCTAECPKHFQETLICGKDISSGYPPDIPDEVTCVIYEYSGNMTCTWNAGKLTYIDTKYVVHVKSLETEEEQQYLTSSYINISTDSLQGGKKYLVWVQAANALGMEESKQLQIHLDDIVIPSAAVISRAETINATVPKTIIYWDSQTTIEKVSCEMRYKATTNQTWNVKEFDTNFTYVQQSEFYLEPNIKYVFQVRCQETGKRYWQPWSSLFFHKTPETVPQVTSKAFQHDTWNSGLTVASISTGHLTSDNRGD

B1: Ac-[Pen]-NTWQ-[Pen]-[Phe(4-OMe)]-[2-Nal]-[Aib]-[Lys(Ac)]-N-[βAla]-NH2 (peptide)
peptide: XNTWQXFXXKNA
modifications: Ac; Pen-Pen disulfide; Phe(4-OMe); 2-Nal; Aib; Lys(Ac); βAla; NH2
B2: Hy-CSNWECYWHHYG-NH2 (peptide)
peptide: H-CSNWECYWHHYG-NH2
modifications: disulfide 1-6 (inferred)
B3: Ac-CADWVCYWHFHQLRDA-NH2 (peptide)
peptide: Ac-CADWVCYWHFHQLRDA-NH2
modifications: disulfide 1-6 (inferred)
B4: Ac-Phe-[Pen]-QTWQ-[Pen]-[Phe[4-(2-aminoethoxy)]-[2-Nal]-[Aib]-[Lys(Ac)]-NN-NH2 (peptide)
peptide: Ac-F[Pen]QTWQ[Pen][AEF][2Nal][Aib]K(Ac)NN-NH2
modifications: disulfide 2-7
SMILES: CC(=O)NCCCC[C@H](NC(=O)C(C)(C)NC(=O)[C@H](Cc1ccc2ccccc2c1)NC(=O)[C@H](Cc1ccc(OCCN)cc1)NC(=O)[C@H]1NC(=O)[C@H](CCC(N)=O)NC(=O)[C@H](Cc2c[nH]c3ccccc23)NC(=O)[C@H]([C@@H](C)O)NC(=O)[C@H](CCC(N)=O)NC(=O)[C@@H](NC(=O)[C@H](Cc2ccccc2)NC(C)=O)C(C)(C)SSC1(C)C)C(=O)N[C@@H](CC(N)=O)C(=O)N[C@@H](CC(N)=O)C(N)=O
B5: Ac-(D)Arg-[Pen]-QTWQ-[Pen]-[Phe[4-(2-aminoethoxy)]-[2-Nal]-[Aib]-[Lys(Ac)]-NN-NH2 (peptide)
peptide: Ac-[dR][Pen]QTWQ[Pen][AEF][2Nal][Aib]K(Ac)NN-NH2
modifications: disulfide 2-7
SMILES: CC(=O)NCCCC[C@H](NC(=O)C(C)(C)NC(=O)[C@H](Cc1ccc2ccccc2c1)NC(=O)[C@H](Cc1ccc(OCCN)cc1)NC(=O)[C@H]1NC(=O)[C@H](CCC(N)=O)NC(=O)[C@H](Cc2c[nH]c3ccccc23)NC(=O)[C@H]([C@@H](C)O)NC(=O)[C@H](CCC(N)=O)NC(=O)[C@@H](NC(=O)[C@@H](CCCNC(=N)N)NC(C)=O)C(C)(C)SSC1(C)C)C(=O)N[C@@H](CC(N)=O)C(=O)N[C@@H](CC(N)=O)C(N)=O
B6: Ac-[Pen]-NTWQ-[Pen]-[Phe(4-OMe)]-[2-Nal]-[hLeu]-[Lys(Ac)]-N-[βAla]-NH2 (peptide)
peptide: XNTWQXFXLKNA
modifications: Ac; Pen-Pen disulfide; Phe(4-OMe); 2-Nal; hLeu; Lys(Ac); βAla; NH2
B7: Ac-[Pen]-NTWQ-[Pen]-[Phe[4-(2-aminoethoxy)]-[2-Nal]-[Aib]-[Lys(Ac)]-N-[βAla]-NH2 (peptide)
peptide: XNTWQXFXXKNA
modifications: Ac; Pen-Pen disulfide; Phe[4-(2-aminoethoxy)]; 2-Nal; Aib; Lys(Ac); βAla; NH2
B8: Ac-(D)Asp-[Pen]-QTWQ-[Pen]-[Phe[4-(2-aminoethoxy)]-[2-Nal]-[Aib]-[Lys(Ac)]-NN-NH2 (peptide)
peptide: Ac-[dD][Pen]QTWQ[Pen][AEF][2Nal][Aib]K(Ac)NN-NH2
modifications: disulfide 2-7
SMILES: CC(=O)NCCCC[C@H](NC(=O)C(C)(C)NC(=O)[C@H](Cc1ccc2ccccc2c1)NC(=O)[C@H](Cc1ccc(OCCN)cc1)NC(=O)[C@H]1NC(=O)[C@H](CCC(N)=O)NC(=O)[C@H](Cc2c[nH]c3ccccc23)NC(=O)[C@H]([C@@H](C)O)NC(=O)[C@H](CCC(N)=O)NC(=O)[C@@H](NC(=O)[C@@H](CC(=O)O)NC(C)=O)C(C)(C)SSC1(C)C)C(=O)N[C@@H](CC(N)=O)C(=O)N[C@@H](CC(N)=O)C(N)=O
B9: Ac-[Pen]-NTWQ-[Pen]-[Phe[4-(2-aminoethoxy)]-[2-Nal]-[Aib]-[Lys(Ac)]-NN-NH2 (peptide)
peptide: XNTWQXFXXKNN
modifications: Ac; Pen-Pen disulfide; Phe[4-(2-aminoethoxy)]; 2-Nal; Aib; Lys(Ac); NH2
B10: Ac-E-[Pen]-QTWQ-[Pen]-[Phe[4-(2-aminoethoxy)]-[2-Nal]-[Aib]-[Lys(Ac)]-NN-NH2 (peptide)
peptide: Ac-E[Pen]QTWQ[Pen][AEF][2Nal][Aib]K(Ac)NN-NH2
modifications: disulfide 2-7
SMILES: CC(=O)NCCCC[C@H](NC(=O)C(C)(C)NC(=O)[C@H](Cc1ccc2ccccc2c1)NC(=O)[C@H](Cc1ccc(OCCN)cc1)NC(=O)[C@H]1NC(=O)[C@H](CCC(N)=O)NC(=O)[C@H](Cc2c[nH]c3ccccc23)NC(=O)[C@H]([C@@H](C)O)NC(=O)[C@H](CCC(N)=O)NC(=O)[C@@H](NC(=O)[C@H](CCC(=O)O)NC(C)=O)C(C)(C)SSC1(C)C)C(=O)N[C@@H](CC(N)=O)C(=O)N[C@@H](CC(N)=O)C(N)=O
B11: Hy-CPNWECYWHRFG-NH2 (peptide)
peptide: H-CPNWECYWHRFG-NH2
modifications: disulfide 1-6 (inferred)
B12: Ac-CADWVCYWHEFG-NH2 (peptide)
peptide: Ac-CADWVCYWHEFG-NH2
modifications: disulfide 1-6 (inferred)
B13: Hy-CTDWKCYWHEFG-NH2 (peptide)
peptide: H-CTDWKCYWHEFG-NH2
modifications: disulfide 1-6 (inferred)
B14: Ac-CRDWVCYWHTFG-NH2 (peptide)
peptide: Ac-CRDWVCYWHTFG-NH2
modifications: disulfide 1-6 (inferred)
B15: Ac-[Pen]-NTWQ-[Pen]-[Phe[4-(2-aminoethoxy)]-[2-Nal]-[hLeu]-ENA-NH2 (peptide)
peptide: XNTWQXFXLENA
modifications: Ac; Pen-Pen disulfide; Phe[4-(2-aminoethoxy)]; 2-Nal; hLeu; NH2
B16: Hy-CADWMCYWHEYG-NH2 (peptide)
peptide: H-CADWMCYWHEYG-NH2
modifications: disulfide 1-6 (inferred)
B17: Ac-[Pen]-QTWQ[Pen]-[Phe(4-CONH2)]-[Phe(3,4-OMe2)]-[α-MeVal]-[Lys(Ac)]-NN-NH2 (peptide)
peptide: Ac-[Pen]QTWQ[Pen][Phe(4-CONH2)][Phe(3,4-(OMe)2)][αMeV]K(Ac)NN-NH2
modifications: disulfide 1-6 (inferred)
B18: Ac-CADWVCYWHNHSEGSG-NH2 (peptide)
peptide: Ac-CADWVCYWHNHSEGSG-NH2
modifications: disulfide 1-6 (inferred)

Key:
IL-23R on DB cells = molecular target: T1, IL-23R on DB cells; experiment: cell-based or functional assay
IL23R_huFC = molecular target: T2, IL23R_huFC; experiment: IL23-IL23R competitive ELISA

Binder	pStat3 HTRF IC50 (IL-23R on DB cells) [nM]	IC50 (IL23R_huFC) [nM]
B1	< 10	–
B2	–	500 to 1000
B3	–	500 to 1000
B4	< 10	–
B5	< 10	–
B6	< 10	–
B7	< 10	–
B8	< 10	–
B9	< 10	–
B10	< 10	–
B11	–	500 to 1000
B12	–	500 to 1000
B13	–	500 to 1000
B14	–	500 to 1000
B15	< 10	–
B16	–	500 to 1000
B17	10 to 25	–
B18	–	500 to 1000
